Results: the DeepSol protein solubility set

Assay: soluble on expression in E. coli; label from the status in PepcDB or PDB records

Q: With “MRTLLITGPGGSGRTTVAAATALRASRTGTRTLVLSADRTDTLGAALGVPTGGAPVEAAPGLTAWRPDAADRFRADLTAFQDRAATALDFLGAARLDAEELTPLPGAEELALLRALRDAALSEAYDLLVVDLPPAPQALALLALPEELRRYLRRLLPPERQAARALRPVLGRLAGVPMPADWLYETAARWDVELAAVEAVVEDRATTVRLVAEPGPAGADAVRAAATGFALRAVRIDTLIANRLLPEEADDAWSAGLAAQQRKFLEEWRGEYRLHELPHLGHDPRGADDLAALAVPGVNDAPGPVEWSVADRLADDGVLVWHIPLPGAIRDELDLLRRGDELVVTAGQFRRIVPLPSALRRCTVAGAALREGELRIRFAPDPDLWPRERLEHHHHHH” as the sequence, how does the “soluble on expression in E. coli” value read?
A: The value was “soluble”.

Q: For “MGSDKIHHHHHHMTTGKKVARRKLSLLELASELDNVSKACRIMGYSRQQFYEIRRNYQTFGAEGLVDRLPGPREPHPNRVDEATEDRILAYSLEFPTHGPVRVAQQLVLQGVQVSSGGVRGVWSRNGMLTRHERLLRLERHVRDTGIALNDDQVRTLERFSPEFRERHIETRCSGDLVAVDTFFVGTLKGVGKIYLQSAIDCHSRYAFGRLYTSKLPVTAVHMLNESVLPFFEEHDTPVVTVLSDNGREFCGRPDRHPYELFLQLENIEHRTTRVRRPQSNGFVERLHRTLLDEHFRIQGRKNWYESLDEMQADLDAYLRHYNHERAHQGRNMSGRTPYQAFLDSRPEGQPKEDNEGHYAA”, which “soluble on expression in E. coli” value is on record?
A: Its value is “not soluble”.

Q: With “MSLKAIAKLRDHCIVCGYGRIGSVVAKELMEEGVALVVIENDPAMIEALETEGILHLAGDATNDELLQAAGIERARALVAALSLDSANVYVVLSAHQINPSMTIVARASEPSHIGKLKLAGADRVFLPHHLGGLRMAQSILRPTVTSFIELAHTRSDLSIQMEELEIGDDSVLVGKTLIESGIRPQYNLIIIGVKRPDGTMHFNPESTYTLQARDTLIAVGFPENFKQFQEILEGHHHHHH” as the sequence, how does the “soluble on expression in E. coli” value read?
A: The value was “soluble”.

Q: With “MGSDKIHHHHHHMNQKNILTWGDVAYASRIATGGSKQEWEALELIWQAWEIIIYTGLATYSNKRELLLVVIRFFAIVSFYLEFFNDYYWEYYINNYSREWLKGIHIIPDYNEYIIDCVNGLCCPILPKSEPNNLLLYFVENALQQVMQVPMDSLNSDSMIFKSVWEISHQQFQLDGDIYELQRREAELISESIFLDKIINLAEIHENYNQNNEFIRDEAAIIEIFFDEDNTDLEWMKCTNHIDFQKSQEVIDATNKFIAFFSCYQIKPNFSLKHCSEIIGFNETDLKRWIRTINRKKQIILSGSPGTGKTFIAKHLAEHLIGGSDGFSELLQFHPTYSYEDFIQGIRPQSQDGQLTYPLVPGRFLKFCKEAEYHQGTCVLIIDEINRANLAQVFGELMYLLEYRNREIPLAGGNTFRIPENVRIIGTMNTADRSIANIDHALRRRFAFIELRPNYDVLRRYHQKRGFAVEGLINILQQLNQAIADKNYEIGISFFLTDNLREDMDDIWPMEIEPYLEEYFFNQLAKVDEFRWDKIKDKLWI” as the sequence, how does the “soluble on expression in E. coli” value read?
A: Its value is “not soluble”.

Q: With “MAVAYEGQLTGHRGWVTSLACPQTPETATKVVSTSRDKTLLSWGPNPDRHSSECSYGLPDRRLEGHSAFVSDVALSNNGNFAVSASWDHSLRLWNLQNGQCQYKFLGHTKDVLSVAFSPDNRQIVSGGRDNALRVWNVKGECMHTLSRGAHTDWVSCVRFSPSLDAPVIVSGGWDNLVKVWDLATGRLVTDLKGHTNYVTSVTVSPDGSLCASSDKDGVARLWDLTKGEALSEMAAGAPINQICFSPNRYWMCAATEKGIRIFDLENKDIIVELAPEHQGSKKIVPECVSIAWSADGSTLYSGYTDNVIRVWGVSENA” as the sequence, how does the “soluble on expression in E. coli” value read?
A: Its value is “not soluble”.

Q: Which “soluble on expression in E. coli” value does the source give for “PAIDYKTAFHLAPIGLVLSRDRVIEDCNDELAAIFRCARADLIGRSFEVLYPSSDEFERIGERISPVMIAHGSYADDRIMKRAGGELFWCHVTGRALDRTAPLAAGVWTFEDLSATRRVA” here?
A: Its value is “soluble”.

Q: Which “soluble on expression in E. coli” value does the source give for “MSLSVLNGYQLIISDVDGVIVREGDPIWENIQALRNIQNNGVKIIFVTNNSGFSRILLSRQLSYLGLKVTPDMIITSGLAAAIYMKEKLNVKSVFAVGEEGLIEELKNHGFLVFSSAESERILPDAVVMGLDRLSTYDKLSLAMRCISKGSKFIVTNMDRLWPAKDGLKLGAGALASSIIYALRRDPDFIAGKPNTWIVEIAMRISNVKKLDKILVIGDQIETDIQMGYNIGADTALVLTGISNVDDVDRSNVKPKYVVNTLLDLLEGHHHHHH” here?
A: Its value is “soluble”.

Q: For “SASTIYTCKECGSDLNLNPNDLFPPDFYFEAGNKGTLSFAAVDAEKFRFEKEDKIMPFFETLNYWGIQRKRTKIKCTSCNHLIGYIYDDGPPLTGGIGQYGFGPSQVIPRAPRYRFKTKARQDGWQYGGLTAFWN”, which “soluble on expression in E. coli” value is on record?
A: The value was “soluble”.

Q: For “MSLSKQETEKVRVFALGGVGEIGKNMYGIEVDEDIIVIDAGLMFPDDDMLGVDIVIPDVSYLVENEERVRGIILTHGHEDHIGGLSYVLKKINVPVYATKLTLGLVEEKLKEAGIHRHAELRLIDSNSRIKLGNTPVSFFRVSHSIPDCVGVCVETSQGAIVHTGDFKFDQTPVDGKHADIGKMAAIGQKGVLCLMSDSTNAERPGTTKSEAEAGKGIKDVFARTKGRLIVTSFASNVHRIQQVIQAASATNRKLAVVGKSMVRVISIAGKLGYLKIPKDLLIDMDEVNKHKPEKVAILTTGSQGEPMSALTRMAKGAHRHITITPNDTVIIAATAIPGNETSVSAVIDQLYRIGAEVIYGSQAVHASGHGSQEELKLMLNLMRPKFFLPIHGEIRMQHAHQQLALQVGIKKERIYIVEKGEVIEFTKQQARRGPKVPSGHVLIDGLGVGDVGNIVLRDRRLLSKDGILVVVVTLNKKTNTIVSGPNIISRGFVYVRESEELLEKSNELVTSILQKCVTENVNEWSSLKSNIREGLSRYLFEKTKRRPMILPIIMEEGHHHHHH”, which “soluble on expression in E. coli” value is on record?
A: Its value is “soluble”.

Q: For “MLVPGRVYLFRIPEGKEIIEFLREFAEKENIKVGIISAIGTLRNPVIGYFMEEEKKYKEISLTGTYELLSLSGNISLKDGKPFVHAHVVLGDSEGRAFGGHLVRGEVFVAEVFVQELEGETLERKPTEHGLALWLEHHHHHH”, which “soluble on expression in E. coli” value is on record?
A: Its value is “not soluble”.

Q: With “MSLMSNDRKVTEIENSPVTEVRPEEHAWYPDDSALAAPPAATPAAISDQLPSDRYLNRELSWLDFNARVLALAADKSMPLLERAKFLAIFASNLDEFYMVRVAGLKRRDEMGLSVRSADGLTPREQLGRIGEQTQQLASRHARVFLDSVLPALGEEGIYIVTWADLDQAERDRLSTYFNEQVFPVLTPLAVDPAHPFPFVSGLSLNLAVTVRQPEDGTQHFARVKVPDNVDRFVELAAREASEEAAGTEGRTALRFLPMEELIAAFLPVLFPGMEIVEHHAFRITRNADFEVEEDRDEDLLQALERELARRRFGSPVRLEIADDMTESMLELLLRELDVHPGDVIEVPGLLDLSSLWQIYAVDRPTLKDRTFVPATHPAFAERETPKSIFATLREGDVLVHHPYDSFSTSVQRFIEQAAADPNVLAIKQTLYRTSGDSPIVRALIDAAEAGKQVVALVEIKARFDEQANIAWARALEQAGVHVAYGLVGLKTHCKTALVVRREGPTIRRYCHVGTGNYNSKTARLYEDVGLLTAAPDIGADLTDLFNSLTGYSRKLSYRNLLVAPHGIRAGIIDRVEREVAAHRAEGAHNGKGRIRLKMNALVDEQVIDALYRASRAGVRIEVVVRGICALRPGAQGISENIIVRSILGRFLEHSRILHFRAIDEFWIGSADMMHRNLDRRVEVMAQVKNPRLTAQLDELFESALDPCTRCWELGPDGQWTASPQEGHSVRDHQESLMERHRSEGHHHHHH” as the sequence, how does the “soluble on expression in E. coli” value read?
A: Its value is “soluble”.

Q: Which “soluble on expression in E. coli” value does the source give for “MAHHHHHHMTSLHPFEYAFMAGASFSPEERVQLTSSLPLLSVQTKRKNLVLWGKIFGCKADYIIVEAFDDDAVVEPELYHTLDEGRTFSLLGTFSSVFSTCPGYSSCSGLQQAEWKQFMLLGMRGPFFGDPAYEYRVSNHSSSDSAPEIQSVKESVRLALFVEEFDHECRVVPRGAYMKAERQATATIASTTGAEVDAGERAEVRRNTALADFRERRRERCRCGTTTTCVP” here?
A: The value was “not soluble”.

Q: Which “soluble on expression in E. coli” value does the source give for “MGSDKIHHHHHHMESVYLFSSGTLKRKANTICLETESGRKYIPVENVMDIKVFGEVDLNKRFLEFLSQKRIPIHFFNREGYYVGTFYPREYLNSGFLILKQAEHYINQEKRMLIAREIVSRSFQNMVDFLKKRKVRADSLTRYKKKAEEASNVSELMGIEGNAREEYYSMIDSLVSDERFRIEKRTRRPPKNFANTLISFGNSLLYTTVLSLIYQTHLDPRIGYLHETNFRRFSLNLDIAELFKPAVVDRLFLNLVNTRQINEKHFDEISEGLMLNDEGKSLFVKNYEQALRETVFHKKLNRYVSMRSLIKMELHKLEKHLIGEQVFGSEE” here?
A: Its value is “not soluble”.

Q: For “MKIAIVGSGNGAVTAAVDMVSKGHDVKLYCRNQSISKFQNAIEKGGFDFNNEGDERFVKFTDISDDMEYVLKDAEIVQVIIPSSYIEYYADVMAEHVTDNQLIFFNMAAAMGSIRFMNVLEDRHIETKPQLAEANTLTYGTRVDFENAAVDLSLNVRRIFFSTYDRSCLNDCYDKVSSIYDHLVKEESLIKTNLENGNPEVHPGPTLLNVGRIDYAGEFALYKEGITKHTVRLLHAIELERLNLGRRLGFELSTAKESRIERGYLERDKEDEPLNRLFNTSPVFSQIPGPNHVESRYLTEDIAYGLVLWSSLGRVIDVPTPNIDAVIVIASTILERDFFEEGLTVEEIGLDKLDLEKYLK”, which “soluble on expression in E. coli” value is on record?
A: Its value is “not soluble”.

Q: For “SELPPEPQANGEAVGAGGGPIYYIYEEEEEEEEEEEEPPPEPPKLVNDKPHKFKDHFFKKPKFCDVCARMIVLNNKFGLRCKNCKTNIHEHCQSYVEMQRCFGKIPPGFHRAYSSPLYSNQQYACVKDLSAANRNDPVFETLRTGVIMANKERKKGQADKKNPVAAMMEEEPESARPEEGKPQDGNPEGDKKAEKKTPDDKHKQPGFQQSHYFVALYRFKALEKDDLDFPPGEKITVIDDSNEEWWRGKIGEKVGFFPPNFIIRVRAGERVHRVTRSFVGNREIGQITLKKDQIVVQKGDEAGGYVKVYTGRKVGLFPTDFLEEI”, which “soluble on expression in E. coli” value is on record?
A: Its value is “soluble”.

Q: Which “soluble on expression in E. coli” value does the source give for “GYQALEKYSRDLTALARAGKLDPVIGRDTEIRRAIQILSRRTKNNPILLGDPGVGKTAIVEGLAIKIVQGDVPDSLKGRKLVSLDLSSLIAGAKYRGDFEERLKSILKEVQDAEGQVVMFIDEIHTVVGAGAVAEGALDAGNILKPMLARGELRCIGATTVSEYRQFIEKDKALERRFQQILVEQPS” here?
A: Its value is “soluble”.

Q: For “MREIIFLVEEAEEGGFVARALGEAIFTEGETWEELKEMVRDAVRCHFGEEAPPIIRLHFVREEVLTP”, which “soluble on expression in E. coli” value is on record?
A: Its value is “soluble”.

Q: For “MSLKKIGVLGMGYVGIPAAVLFADAPCFEKVLGFQRNSKSSGYKIEMLNRGESPLKGEEPGLEELIGKVVKAGKFECTPDFSRISELDAVTLAIQTPFANPKDLEPDFSALIDGIRNVGKYLKPGMLVVLESTITPGTTEGMAKQILEEESGLKAGEDFALAHAPERVMVGRLLKNIREHDRIVGGIDEASTKRAVELYSPVLTVGQVIPMSATAAEVTKTAENTFRDLQIAAINQLALYCEAMGINVYDVRTGVDSLKGEGITRAVLWPGAGVGGHCLTKDTYHLERGVKIGRGELDYPEGADSIYVLARKVNDFMPAHMYNLTVAALERLGKKMDGSKVAMLGWAFIKDSDDARNTPSEPYRDLCLKAGASVMVHDPYVVNYPGVEISDNLEEVVRNADAIVVLAGHSAYSSLKADWAKKVSAKANPVIIDGRNVIEPDEFIGKGFVYKGIGRGDKNSHKIKEGHHHHHH”, which “soluble on expression in E. coli” value is on record?
A: Its value is “soluble”.

Q: For “MSTLAQLLDTKRTALAAELAGFIDRSVSQSSGISGVALKGAVAAAKKVRPDIVTKGAERLLPEVVEVLDPYWASFEASDSTHFGEFLEQHKSEVSDKILEVADRNAEKVDMPALKKAYGSLRGKAASFIEPNLPGLGQIMQNYMK”, which “soluble on expression in E. coli” value is on record?
A: The value was “not soluble”.
